Results on four molecules are retold here after patent US8106168B2, “Metalloproteinase binding proteins” (Dyax Corp., priority 2005, dated 2012).

Assay [1] deals with T1, MMP-14 (Homo sapiens, UniProt P50281). The assay can be described thus: Selection and phage ELISA screening of anti-MMP-14 Fabs. The following applies: Fab from FAB310 phage display library. In kind it is binding. Put shortly:
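Phage ELISA screened 95 clones from each of rounds 2 and 3 against biotinylated MMP-14 (1 μg/ml) captured on streptavidin, in TRIS/CaCl2/NaCl pH 7.5. The clones came from Fab library selections on biotinylated MMP-14, either free or TIMP-2-complexed (500 nM round 1, 100 nM later rounds). Elution used 2.5 μM TIMP-2 followed by TEA.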

For assay [2], the target named is T1, MMP-14. The assay can be described thus: IC50 for MMP-14 inhibition by Fabs and IgGs. In kind it is biochemical. The following applies: Fab. As for the experimental part: MMP-14 binding proteins can be characterized in assays that measure their modulatory activity toward MMP-14 or fragments thereof in vitro or in vivo. For example, MMP-14 can be combined with a substrate such as Mca-Pro-Leu-Ala-Cys(Mob)-Trp-Ala-Arg-Dap(Dnp)-NH2 under assay conditions permitting cleavage by MMP-14. The assay is performed in the absence of the MMP-14 binding protein, and in the presence of increasing concentrations of the MMP-14 binding protein. The concentration of binding protein at which 50% of the MMP-14 activity (e.g., binding to the substrate) is inhibited is the IC50 value (Inhibitory Concentration 50%) or EC50 (Effective Concentration 50%) value for that binding protein.

Assay [3] concerns the target T2, MMP-16 (Homo sapiens, UniProt P51512). The assay can be described thus: Cross-reactivity of anti-MMP-14 IgGs, enzymatic activity: MMP-16. In kind it is biochemical. The following applies: 1 μM anti-MMP-14 IgG. As for the experimental part: (§1) The cross-reactivity of exemplary anti-MMP-14 IgGs and Fabs with other human MMPs and TACE (TNF-alpha converting enzyme) was examined. MMP and TACE enzymatic activity was monitored in the absence and presence of 1 μM anti-MMP-14 IgG antibody. Inhibition (Y) of activity ranged from approximately 50-80% of the reaction rate observed in the absence of antibody. “X” indicates no inhibition was observed. Cross-reactivity was not determined for MMP-17 because protein activity could not be detected.
(§2) For the studies summarized in Table 12, six anti-MMP-14 IgGs were selected for cross-reactivity testings: M0043-G02, M0040-A06, M0037-D01, M037-C09, M0038-F01, M0033-H07.

The target of assay [4] is T3, MMP-24 (Homo sapiens, UniProt Q9Y5R2). The assay can be described thus: Cross-reactivity of anti-MMP-14 IgGs, enzymatic activity: MMP-24. In kind it is biochemical. As to conditions: 1 μM anti-MMP-14 IgG. As for the experimental part: as §1, §2
T3 sequence (Q9Y5R2 156-645): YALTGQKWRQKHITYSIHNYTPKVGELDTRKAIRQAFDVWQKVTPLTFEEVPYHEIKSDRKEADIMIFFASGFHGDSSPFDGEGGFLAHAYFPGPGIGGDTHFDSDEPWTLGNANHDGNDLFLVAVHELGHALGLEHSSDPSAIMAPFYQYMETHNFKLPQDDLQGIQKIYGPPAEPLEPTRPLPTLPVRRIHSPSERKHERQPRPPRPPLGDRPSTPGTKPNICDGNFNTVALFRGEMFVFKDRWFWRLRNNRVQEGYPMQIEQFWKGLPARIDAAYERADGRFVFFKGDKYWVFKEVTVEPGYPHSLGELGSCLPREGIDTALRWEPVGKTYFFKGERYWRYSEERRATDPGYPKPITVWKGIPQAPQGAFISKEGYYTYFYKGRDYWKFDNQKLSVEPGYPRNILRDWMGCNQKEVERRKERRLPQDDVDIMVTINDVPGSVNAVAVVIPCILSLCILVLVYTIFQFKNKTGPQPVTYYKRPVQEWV
The target of assay [5] is T2, MMP-16. The assay can be described thus: Cross-reactivity of Fabs and IgGs with MMP-16 (Example 8). In kind it is biochemical. Further details: key to MMP-16 (cross-reactivity, class symbol): X: Does not inhibit MMP-16 at [I] = 100 nM level. As to conditions: 5 nM MMP16, 30 minutes at 30° C., 10 μM substrate. As for the experimental part:
For the studies summarized in Tables 13 and 14, 100 nM anti-MMP-14 Fab/IgG were incubated with 5 nM MMP16 for 30 minutes at 30° C., 10 μM of substrate was added, and the MMP-16 activity was measured.

Assay [6] concerns the target T2, MMP-16. The assay can be described thus: Cross-reactivity of Fabs with MMP-16 (Example 9). It is filed as biochemical. Further details: key: X: Do not inhibit MMP-16 or MMP-24 at [I] = 100 nM level; Y: partially inhibit at [I] = 100 nM level. As to conditions: Fab, 100 nM final inhibitor concentration, 5 nM MMP-16. As for the experimental part: (§3) For the studies summarized in Table 15, 1 μM of anti-MMP-14 Fab/IgG (100 nM final inhibitor concentration) were incubated with 5 nM of MMP-16 or 5 nM of MMP-24 for 30 minutes at 30° C., 10 μM of substrate was added, and the MMP-16 activity was measured.

Assay [7] addresses T3, MMP-24. The assay can be described thus: Cross-reactivity of Fabs with MMP-24 (Example 9). The following applies: Fab, 100 nM final inhibitor concentration; 5 nM MMP-24. It is filed as biochemical. More on the design: key to MMP-24 (cross-reactivity, class symbol): X: Do not inhibit MMP-16 or MMP-24 at [I] = 100 nM level; Y: partially inhibit at [I] = 100 nM level. As for the experimental part: as §3

In assay [8] the test system is Tumor Cells Expressing MMP-14 (HT-1080, LNCaP, MDA-MB-231, PC3). The experiment in a line: Binding of IgGs to tumor cells, immunocytochemistry and flow cytometry. In kind it is cell-based, human. As to conditions: ICC versus flow cytometry. As for the experimental part: The ability of twelve biotinylated-MMP-14 binding IgGs to bind to tumor cells expressing MMP-14 was evaluated using both immunocytochemistry (ICC) and flow cytometry. The cell lines tested were HT-1080 (a human fibrosarcoma cell line), LNCaP (human, prostate, carcinoma), MDA-MB-231 (human, breast, adenocarcinoma), or PC3 (Human prostatic cancer cells) cells. MMP-14 is expressed on HT-1080 cells (Cancer Res. (2005) 65(23):10959-69.). MMP-14 is expressed on PC-3 cells (Oncol Rep. (2006) 15(1):199-206). LNCaP express MMP-14 (Endocrinology (2003) 144(5):1656-1663) at a relatively low level. […] MMP-14 is expressed by MDA-MB-231 cells (Int J Cancer. (2005) 114(4):544-554.).
Cells (2×10^5) were cultivated on cell culture slides in complete medium. At confluency, cells were washed with PBS and fixed with 4% paraformaldehyde for 30 minutes at room temperature. Endogenous peroxidases were blocked with 3% hydrogen peroxide for 20 minutes. Nonspecific binding sites were blocked by incubation with 10% heat inactivated human serum 10% normal rabbit serum for 30 minutes at room temperature. Cells were then incubated with biotinylated or non-biotinylated MMP-14 binding proteins at 10 μg/ml for 2 hours at room temperature. […] Binding was detected with the substrate AEC+(25 minutes at room temperature in the dark). […]

Assay [9] deals with activation of pro-MMP-2 by MMP-14 in PMA-activated HT-1080 cells. The assay can be described thus: Gelatin zymogram, pro-MMP-2 activation in HT-1080 cells. In kind it is cell-based, human. The following applies: gelatin zymography of conditioned media after 3 days; antibodies 10 μg/ml, GM6001 10 μM. As for the experimental part:
The ability of anti-MMP-14 IgGs to inhibit the activation of pro-MMP-2 by MMP-14 was examined by gelatin zymogram experiments performed with PMA-activated HT-1080 cells. M0033-H07 and M0038-F01 were tested for their ability to inhibit MMP-14 in this assay. HT1080 cells (well-known to express MMP-14 and MMP-2) were seeded at 5×10^5 cells/well at Day 0. […] HT-1080 cells cultured in the presence of 20 ng/ml of PMA were used as a positive control.
After 3 days of incubation, conditioned media were collected and gelatinolytic activities were analyzed by gelatin zymography as described previously (Maquoi et al, J Biol Chem 2000; 275:11368-78). When HT-1080 cells are activated with a phorbol ester, pro-MMP-2 is activated into MMP-2 (lane 1).

T2 sequence (P51512 120-607): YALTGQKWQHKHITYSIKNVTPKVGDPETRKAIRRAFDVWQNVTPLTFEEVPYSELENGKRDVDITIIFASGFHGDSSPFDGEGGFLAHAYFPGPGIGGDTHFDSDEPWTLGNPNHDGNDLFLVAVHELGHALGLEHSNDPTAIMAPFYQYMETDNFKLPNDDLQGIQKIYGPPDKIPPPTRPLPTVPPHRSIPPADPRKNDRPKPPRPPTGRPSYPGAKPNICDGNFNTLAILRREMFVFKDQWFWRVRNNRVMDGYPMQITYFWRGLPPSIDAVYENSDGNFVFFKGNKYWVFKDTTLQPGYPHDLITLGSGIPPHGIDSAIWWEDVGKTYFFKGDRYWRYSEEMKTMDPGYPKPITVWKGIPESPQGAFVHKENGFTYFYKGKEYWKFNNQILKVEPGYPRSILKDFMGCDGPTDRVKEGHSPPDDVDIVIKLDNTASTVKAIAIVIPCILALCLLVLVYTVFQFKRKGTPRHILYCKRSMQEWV

B1: M0037-D01: human antibody (Fab, IgG) that binds and inhibits MMP-14; HC SEQ ID NO: 152, LC SEQ ID NO: 153 (antibody, V domains shown)
VH: EVQLLESGGGLVQPGGSLRLSCAASGFTFSMYMMIWVRQAPGKGLEWVSSIYPSGGNTMYADSVKGRFTISRDNSKNTLYLQMNSLRAEDTAVYYCATGVLRYFDWDAGSGMDVWGQGTTVTVSSLC
VL: QDIQMTQSPSSLSASVGDRVTITCRASQGIRNDLGWYQQKPGKAPKRLIYVASSLQSGVPSRFSGSGSGTEFTLTISSLQPEDFATYYCLQHNSYPWTFGQGTKVEIK
modifications: Synthetically generated peptide
B1: the “bind to human MMP-14” value with MMP-14 [1] is reported as “bind to human MMP-14”. Also, the “bind to and inhibit human MMP-14” value in the assay with MMP-14 [2] is “bind to and inhibit human MMP-14”. In addition, the “Cross reactivity: inhibition of MMP-16 activity” value in the assay with MMP-16 [3] is listed as “Y (Inhibition (Y) of activity ranged from approximately 50-80% of the reaction rate observed in the absence of antibody)”. For the same molecule, the “Cross reactivity: inhibition of MMP-24 activity” value with MMP-24 [4] is reported as “Y (Inhibition (Y) of activity ranged from approximately 50-80% of the reaction rate observed in the absence of antibody)”. In addition, the “MMP-16 (cross-reactivity, class symbol)” value in the assay with MMP-16 [5] (Fab 100 nM), with MMP-16 [5] (IgG 100 nM) and with MMP-16 [6] was “X” in each case. Besides, the MMP-24 inhibition entry with MMP-24 [7] is reported as “Y 71% inhibition”.

B2: M0031-F01: human antibody (Fab, IgG) that binds and inhibits MMP-14; HC SEQ ID NO: 146, LC SEQ ID NO: 147 (antibody, V domains shown)
VH: EVQLLESGGGLVQPGGSLRLSCAASGFTFSTYEMHWVRQAPGKGLEWVSSIYSSGGWTGYADSVKGRFTISRDNSKNTLYLQMNSLRAEDTAVYYCARSQQYYDFSSRYYGMDVWGQGTTVTVSS
VL: QSELTQPPSVSGTPGQRVTISCSGTSANIGRNAVHWYQQLPGTAPKLLIHSNNRRPSGVPDRFSGSKSGTSASLAISGLQSEDEADYYCAAWENSLNAFYVFGTGTKVTVL
modifications: Synthetically generated peptide
For B2, the “bind to human MMP-14” value with MMP-14 [1] is on record as “bind to human MMP-14”. Also, the “bind to and inhibit human MMP-14” value with MMP-14 [2] was “bind to and inhibit human MMP-14”. Moreover, the “Staining, remark on method” value in [8] was “(only positive in ICC)”.

B3: M0037-C09: human antibody (Fab, IgG) that binds and inhibits MMP-14; HC SEQ ID NO: 150, LC SEQ ID NO: 151 (antibody, V domains shown)
VH: EVQLLESGGGLVQPGGSLRLSCAASGFTFSHYEMFWVRQAPGKGLEWVSSISPSGGQTHYADSVKGRFTISRDNSKNTLYLQMNSLRAEDTAVYYCATDRTYYDFWSGYGPLWYWGQGTLVTVSS
VL: QDIQMTQSPLSLPVTLGESASVSCRSSQSLLHENGHNYLDWYLQKPGQSPQLLIYLGSNRASGVPDRFSGSGSGTDFTLKISRVEAEDVGVYYCMQSLKTPPTFGPGTKVEIK
modifications: Synthetically generated peptide
Turning to B3, in the assay with MMP-14 [1], the “bind to human MMP-14” value is on record as “bind to human MMP-14”. The “bind to and inhibit human MMP-14” value with MMP-14 [2] was “bind to and inhibit human MMP-14”. Moreover, the “Cross reactivity: inhibition of MMP-16 activity” value in the assay with MMP-16 [3] is reported as “Y (Inhibition (Y) of activity ranged from approximately 50-80% of the reaction rate observed in the absence of antibody)”. In addition, the “Cross reactivity: inhibition of MMP-24 activity” value with MMP-24 [4] was “Y (Inhibition (Y) of activity ranged from approximately 50-80% of the reaction rate observed in the absence of antibody)”. Also, the “MMP-16 (cross-reactivity, class symbol)” value with MMP-16 [5] (Fab 100 nM), with MMP-16 [5] (IgG 100 nM) and with MMP-16 [6] was “X” in each case. Further, the MMP-24 inhibition result in the assay with MMP-24 [7] is given as “Y 72% inhibition”.

B4: M0033-H07: human antibody (Fab, IgG) that binds and inhibits MMP-14; HC SEQ ID NO: 148, LC SEQ ID NO: 149 (antibody, V domains shown)
VH: EVQLLESGGGLVQPGGSLRLSCAASGFTFSVYGMVWVRQAPGKGLEWVSVISSSGGSTWYADSVKGRFTISRDNSKNTLYLQMNSLRAEDTALYYCARPFSRRYGVFDYWGQGTLVTVSS
VL: QDIQMTQSPSSLSASVGDRVTITCRASQGIRNFLAWYQQKPGKVPKLLVFGASALQSGVPSRFSGSGSGTDFTLTISGLQPEDVATYYCQKYNGVPLTFGGGTKVEIK
modifications: Synthetically generated peptide
On to B4, for which, in the assay with MMP-14 [1], the “bind to human MMP-14” value was “bind to human MMP-14”. In the assay with MMP-14 [2], the “bind to and inhibit human MMP-14” value is “bind to and inhibit human MMP-14”. The “Cross reactivity: inhibition of MMP-16 activity” value with MMP-16 [3] is on record as “Y (Inhibition (Y) of activity ranged from approximately 50-80% of the reaction rate observed in the absence of antibody)”. In the assay with MMP-24 [4], the “Cross reactivity: inhibition of MMP-24 activity” value is on record as “Y (Inhibition (Y) of activity ranged from approximately 50-80% of the reaction rate observed in the absence of antibody)”. Besides, the “MMP-16 (cross-reactivity, class symbol)” value with MMP-16 [5] (Fab 100 nM), in the assay with MMP-16 [5] (IgG 100 nM) and with MMP-16 [6] was “X” throughout. The “MMP-24 (cross-reactivity, class symbol)” value with MMP-24 [7] is “X”. Besides, the “pro-MMP-2 activation by MMP-14” value in assay [9] is recorded as “partly inhibited”. In addition, in [9], the pro-MMP-9 expression entry was “No stimulation”.
